Reference: patent US20210403552A1 (SHANGHAI GENBASE BIOTECHNOLOGY, published 2021)
Changes are numbered by the printed parent chain. Like-named read-outs stand apart in the source and are kept apart here. One block for each binder: values may come before it.

How the values were obtained:
human CLDN18.2 [1] = biological target: human CLDN18.2 (human); experiment: cell-based or functional assay
human CLDN18.2 [2] = biological target: human CLDN18.2 (human); experiment: cell-based or functional assay; remark: listed apart in the source
human CLDN18.2 [3] = biological target: T1, human CLDN18.2 (human); experiment: imaging cytometry (% fluorescent cells), HEK293T-hCLDN18.2 cells
T1 construct: over-expressed on HEK293T or OCUM-1 cells by lentivirus; KATO-III and NUGC4 gastric cancer cells express it naturally; also called hCLDN18.2; hCLDNA18.2
Description: (§1) 10,000 cells were plated in 100 μL of DMEM containing 10% FBS per well in a flat-bottomed 96-well plate. After the cells adhered or were settled to the bottom of the wells overnight, the supernatant was removed on the next day. 3-Fold gradient dilution of antibody was performed by diluting 1/3 of the total volume (i.e., 100 μL) in 200 μL of DMEM. 100 μL of the diluted antibody (the supernatants of fused clones or subclones was used in the screening) was added to each well of the cell plate, 100 μL of DMEM was added to the corresponding negative control well, and incubation was carried out for 1 hour at room temperature. After removing the supernatant, 100 μL of secondary antibody (5 μg/mL, diluted in DMEM) was added to each well, and incubated at room temperature for 0.5 hours. The supernatant was removed after staining, followed by washing with PBS once. 100 μL of PBS was added to each well, and then reading was carried out on the cytometer.
(§2) A full-field scanning cytometer (Nexcelom, Celigo® Image Cytometer) was used to measure the readings of the experimental plate. During the measurement, high-speed scanning imaging of the cells in the well was simultaneously performed in the green fluorescent channel corresponding to the secondary antibody and in the bright field channel. The cells that bound the antibody were counted in the image obtained from the green fluorescent channel under the parameters set in accordance with the morphology and fluorescence intensity of the fluorescently labeled cells, and the adhered cells were counted in the image obtained from the bright field channel under the parameters set in accordance with the morphology of the cells. […] The data analysis was performed using GraphPad.

human CLDN18.2 [4] = biological target: T1, human CLDN18.2; experiment: cell-based or functional assay; remark: listed apart in the source
human CLDN18.2 [5] = biological target: T1, human CLDN18.2; experiment: cell-based or functional assay; remark: listed apart in the source
human CLDN18.2 [6] = biological target: T1, human CLDN18.2; experiment: imaging cytometry (% fluorescent cells), HEK293T-hCLDN18.2 cells; remark: listed apart in the source
Description: as §1, §2

human CLDN18.2 [7] = biological target: T1, human CLDN18.2; experiment: cell-based or functional assay; remark: listed apart in the source
human CLDN18.2 [8] = biological target: T1, human CLDN18.2; experiment: imaging cytometry (% fluorescent cells), OCUM1-hCLDN18.2 cells
Source text: (§3) HEK293T-hCLDN18.2 and OCUM-1-hCLDN18.2 expressing human CLDN18.2 (hCLDN18.2), or HEK293T-mCLDN18.2 expressing mouse CLDN18.2 (mCLDN18.2) and the corresponding negative control cell line HEK293T were used; or HEK293T-hCLDN18.1 and CHOS-hCLDN18.1 expressing human CLDN18.1 (hCLDN18.1) were used. DyLight488 goat anti-mouse IgG (Abcam, Catalog No. ab97015) or DyLight488 goat anti-human IgG (Abcam, Catalog No. ab97003) was used as secondary antibody. Binding curves were generated by using the following method.
as §1
(§4) A full-field scanning cytometer (Nexcelom, Celigo® Image Cytometer) was used to measure the readings of the experimental plate. During the measurement, high-speed scanning imaging of the cells in the well was simultaneously performed in the green fluorescent channel corresponding to the secondary antibody and in the bright field channel. The cells that bound the antibody were counted in the image obtained from the green fluorescent channel under the parameters set in accordance with the morphology and fluorescence intensity of the fluorescently labeled cells, and the adhered cells were counted in the image obtained from the bright field channel under the parameters set in accordance with the morphology of the cells.

mouse CLDN18.2 = biological target: T2, mouse CLDN18.2 (mouse, UniProt P56857 10-264); experiment: imaging cytometry (% fluorescent cells), HEK293-mCLDN18.2 cells
T2 construct: over-expressed on HEK293T cells by lentivirus; also called mCLDN18.2; murine CLDN18.2
T2 chain: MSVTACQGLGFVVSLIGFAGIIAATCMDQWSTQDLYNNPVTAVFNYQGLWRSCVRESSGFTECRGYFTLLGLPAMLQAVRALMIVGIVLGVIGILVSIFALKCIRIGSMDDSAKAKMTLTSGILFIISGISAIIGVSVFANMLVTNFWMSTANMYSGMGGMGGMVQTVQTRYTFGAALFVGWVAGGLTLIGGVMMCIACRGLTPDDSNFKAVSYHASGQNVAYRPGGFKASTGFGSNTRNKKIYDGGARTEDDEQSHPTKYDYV
Source text: as §3, §1, §4

human CLDN18.1 = biological target: T3, human CLDN18.1 (human, UniProt P56856 1-261); experiment: imaging cytometry, CHOS-hCLDN18.1 cells
T3 construct: over-expressed on HEK293T or CHOS cells by lentivirus; also called hCLDN18.1
T3 sequence (P56856 whole entry): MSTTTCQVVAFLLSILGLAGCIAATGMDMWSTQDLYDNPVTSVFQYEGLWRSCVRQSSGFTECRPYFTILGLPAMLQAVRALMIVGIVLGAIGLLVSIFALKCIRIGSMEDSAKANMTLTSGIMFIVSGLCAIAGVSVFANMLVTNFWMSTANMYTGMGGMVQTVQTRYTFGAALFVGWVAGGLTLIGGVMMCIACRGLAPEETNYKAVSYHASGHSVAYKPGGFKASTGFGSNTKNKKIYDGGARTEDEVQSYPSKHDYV
Source text: as §3, §1, §4

human CLDN18.2 [9] = biological target: T1, human CLDN18.2; experiment: imaging cytometry (% fluorescent cells), HEK293-hCLDN18.2 cells
Source text: as §3, §1, §4

B2: 37B1-chIgG1 (antibody, V domains shown)
VH: EVRLQQSGPELVKPGASVKMSCKASGYSFTDYNMHWVKQSHGKSPEWVGYINPNKGGTGYNQKFKGKATLTVNKSSSTANMELRSLTSEDSAVYYCARIWYGNSFAYWGQGTLVTVSA
VL: DVVMTQSPSSLTVTAGEKVTMSCKSSQSLLNSGNQKNYLTWYQQKPGQPPKLLIYWASTRESGVPDRFTGSGSGTDFTLTISSVQAEDLAVYFCQNDYFYPFTFGSGTKLEIKR
notes: human-mouse chimeric antibody, human IgG1/kappa constant regions
ADCC EC50, HEK293T-hCLDN18.2 target cells, human PBMC effectors (human CLDN18.2 [2]): 0.0126 µg/mL | CDC EC50, HEK293T-hCLDN18.2 target cells, human serum (human CLDN18.2 [5]): 1.93 µg/mL | EC50 (human CLDN18.2 [6]): 0.031 µg/mL | Internalization percentage (%), HEK293T-hCLDN18.2 cells, flow cytometry, 10 µg/mL antibody (human CLDN18.2 [7]): -3.2%

B4: 27B5-chIgG1 (antibody, V domains shown)
VH: QVQLQQPGTELVKPGASVKLSCKASGYTFTSYWMHWVKQRPGQGLEWIGNIHPSNGGSNHNEKFKSKATLTVDKSSSTAYMQLSSLTSEDSAVYYCAPIYYGNSLAYWGHGTLVTVSA
VL: B2 VL with I54L, F93Y, D97S
notes: as for B2
ADCC EC50, HEK293T-hCLDN18.2 target cells, human PBMC effectors (human CLDN18.2 [2]): 0.0249 µg/mL | CDC EC50, HEK293T-hCLDN18.2 target cells, human serum (human CLDN18.2 [5]): 5.17 µg/mL | EC50 (human CLDN18.2 [6]): 0.108 µg/mL | Internalization percentage (%), HEK293T-hCLDN18.2 cells, flow cytometry, 10 µg/mL antibody (human CLDN18.2 [7]): -2.2%

B5: 44A8-chIgG1 (antibody, V domains shown)
VH: EVRLQQSGPELVKPGASVKMSCKASGYTFTDYNMHWVKQSHGKSLEWIGYINPKNGGIRYNQKFTGKATLTVNKSSSTAYMELRSLTSEDSAVYYCARGGYYGNTLDNWGQGTSVTVSS
VL: B2 VL with V2I, V13L, R60S, V91I, F93Y, D97A, F102W, S106G
notes: as for B2
ADCC EC50, HEK293T-hCLDN18.2 target cells, human PBMC effectors (human CLDN18.2 [2]): 0.0156 µg/mL | CDC EC50, HEK293T-hCLDN18.2 target cells, human serum (human CLDN18.2 [5]): 2.4 µg/mL | EC50 (human CLDN18.2 [6]): 0.069 µg/mL | Internalization percentage (%), HEK293T-hCLDN18.2 cells, flow cytometry, 10 µg/mL antibody (human CLDN18.2 [7]): 2.5%

B6: 2F12 (antibody, V domains shown)
VH: EVQLVESGGGLVKPGGSLKLSCAASGFTFSDYGIHWVRQAPEKGLEWVAYISSGSSTIYYADTVKGRFTISRDNAKNTLFLQMTSLRSEDTAIYYCAKWDRGNCFDYWGQGTTLTVSS
VL: DIVLTQSPSSLTVTAGEKVTMSCKSSQSLLNSGNQKKYLTWYQQKVGQPPKLLIYWASIRECGVPDRFTGSGSGTDFILTISSVQAEDLAVYYCQNAYSYPLTFGAGTKLELK
notes: murine monoclonal antibody purified from hybridoma culture supernatant
EC50 (human CLDN18.2 [8]): 0.186 µg/mL | EC50 (mouse CLDN18.2): 0.036 µg/mL | binding result (human CLDN18.1): no binding | EC50 (human CLDN18.2 [9]): 0.041 µg/mL

Next, values leading:

CDC EC50, KATO-III target cells, human serum (human CLDN18.2 [1]): 0.52 µg/mL | ADCC EC50, HEK293T-hCLDN18.2 target cells, human PBMC effectors (human CLDN18.2 [2]): 0.0078 µg/mL | ADCC EC50, KATO-III target cells, human PBMC effectors (human CLDN18.2 [2]): 0.099 µg/mL | ADCC EC50, NUGC4 target cells, human PBMC effectors (human CLDN18.2 [2]): 0.047 µg/mL | EC50 (human CLDN18.2 [3]): 0.012 µg/mL | ADCC EC50, KATO-III target cells, human PBMC effectors (human CLDN18.2 [4]): 0.0117 µg/mL | CDC EC50, HEK293T-hCLDN18.2 target cells, human serum (human CLDN18.2 [5]): 0.6 µg/mL | CDC EC50, KATO-III target cells, human serum (human CLDN18.2 [5]): 0.18 µg/mL | EC50 (human CLDN18.2 [6]): 0.027 µg/mL | Internalization percentage (%), HEK293T-hCLDN18.2 cells, flow cytometry, 10 µg/mL antibody (human CLDN18.2 [7]): -1.5%
B1: 44F7-chIgG1 (antibody, V domains shown)
VH: QVQLQQSGAELVRPGASVKMSCKASGYTFTSYNMHWVKQAPRQGLEWIGTIYPGNGDTSYNQKFKGKATLTVDKSSSTAYMQLSSLTSEDSAVYFCARGGYYGNSLDYWGQGTTLTVSS
VL: B2 VL with V2I, V3Q, F93Y, D97A, F99Y
notes: human-mouse chimeric antibody, human IgG1/kappa constant regions; also called parental chimeric antibody

CDC EC50, KATO-III target cells, human serum (human CLDN18.2 [1]): 34.8 µg/mL | ADCC EC50, HEK293T-hCLDN18.2 target cells, human PBMC effectors (human CLDN18.2 [2]): 0.058 µg/mL | ADCC EC50, KATO-III target cells, human PBMC effectors (human CLDN18.2 [2]): 2.4 µg/mL | EC50 (human CLDN18.2 [3]): 0.035 µg/mL | EC50 (human CLDN18.2 [8]): 6.54 µg/mL | ADCC EC50, KATO-III target cells, human PBMC effectors (human CLDN18.2 [4]): 0.788 µg/mL | EC50 (mouse CLDN18.2): 0.81 µg/mL | CDC EC50, HEK293T-hCLDN18.2 target cells, human serum (human CLDN18.2 [5]): 18.2 µg/mL | EC50 (human CLDN18.2 [6]): 0.536 µg/mL
B3: 175D10 (antibody, human IgG1, kappa, V domains shown)
VH: QVQLQQPGAELVRPGASVKLSCKASGYTFTSYWINWVKQRPGQGLEWIGNIYPSDSYTNYNQKFKDKATLTVDKSSSTAYMQLSSPTSEDSAVYYCTRSWRGNSFDYWGQGTTLTVSS
VL: B2 VL with V2I, F93Y, F99S
